Laboratory results as given in patent publication US20150297748A1 (Daiichi Sankyo, published 2015).

Experiments:
human B7-H3 variant 1 = molecular target: T1, human B7-H3 variant 1 (human, UniProt Q5ZPR3 27-534); assay: flow cytometry: 10 µg/mL M30 on CCRF-CEM clones transfected with pcDNA3.1-B7-H3, detected with fluorescein-conjugated goat anti-mouse IgG
T1 construct: also called 4Ig-B7-H3
T1 sequence: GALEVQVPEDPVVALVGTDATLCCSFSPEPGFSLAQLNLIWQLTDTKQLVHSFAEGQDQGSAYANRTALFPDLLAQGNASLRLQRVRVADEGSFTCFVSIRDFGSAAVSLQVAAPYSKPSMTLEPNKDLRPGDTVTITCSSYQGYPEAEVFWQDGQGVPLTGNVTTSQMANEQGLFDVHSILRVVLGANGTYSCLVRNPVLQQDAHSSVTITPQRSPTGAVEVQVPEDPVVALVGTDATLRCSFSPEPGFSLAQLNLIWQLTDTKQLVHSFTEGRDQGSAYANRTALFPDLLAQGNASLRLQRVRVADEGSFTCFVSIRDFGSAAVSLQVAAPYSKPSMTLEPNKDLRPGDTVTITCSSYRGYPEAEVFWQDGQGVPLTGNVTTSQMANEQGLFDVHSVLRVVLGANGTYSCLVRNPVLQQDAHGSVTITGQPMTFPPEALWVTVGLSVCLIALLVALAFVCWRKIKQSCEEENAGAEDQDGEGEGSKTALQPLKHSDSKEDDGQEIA
Procedure: Flow cytometry was used for confirming B7-H3 expression in each recovered clone. Specifically, each recovered clone was washed twice with PBS containing 5% FBS, thereafter suspended by the addition of PBS containing 5% FBS and 10 μg/mL M30, and left standing at 4° C. for 30 minutes. The clone was washed twice with PBS containing 5% FBS, thereafter suspended by the addition of Fluorescein-conjugated goat IgG fraction to mouse IgG (Whole Molecule) (455493, manufactured by ICN Pharmaceuticals, Inc.) diluted 1000-fold with PBS containing 5% FBS, and left standing at 4° C. for 30 minutes. The clone was washed twice with PBS containing 5% FBS, thereafter resuspended in PBS containing 5% FBS, and detected by using a flow cytometer (FC500: Beckman Coulter, Inc.).

CD33 = CD33 (UniProt P20138 18-364, limits assumed); assay: cell-based or functional assay
CD70 = molecular target: T2, CD70 (UniProt P32970 1-193, limits assumed); assay: cell-based or functional assay
T2 sequence (looked up): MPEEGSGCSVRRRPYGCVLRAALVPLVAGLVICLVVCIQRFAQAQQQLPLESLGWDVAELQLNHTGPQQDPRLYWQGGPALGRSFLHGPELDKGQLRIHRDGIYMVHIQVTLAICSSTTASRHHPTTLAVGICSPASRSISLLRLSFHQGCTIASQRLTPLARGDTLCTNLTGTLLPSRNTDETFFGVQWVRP

Chain of CD33 (P20138 18-364 limits assumed): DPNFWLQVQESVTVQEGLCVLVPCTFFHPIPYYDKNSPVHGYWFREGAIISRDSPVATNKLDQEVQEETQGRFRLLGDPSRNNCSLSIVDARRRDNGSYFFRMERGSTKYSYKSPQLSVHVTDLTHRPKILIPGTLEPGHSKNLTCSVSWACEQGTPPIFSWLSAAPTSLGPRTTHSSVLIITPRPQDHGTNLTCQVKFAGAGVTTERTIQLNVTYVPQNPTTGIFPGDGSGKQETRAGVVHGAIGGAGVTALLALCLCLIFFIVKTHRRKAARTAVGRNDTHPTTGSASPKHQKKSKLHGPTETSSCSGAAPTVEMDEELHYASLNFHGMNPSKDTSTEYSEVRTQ

B1: M30 antibody (antibody, mouse IgG2a, kappa, V domains shown)
VH: EVQLQQSGPELVKPGASVKMSCKASGYTFTNYVMHWVKQKPGQGLEWIGYINPYNDDVKYNEKFKGKATQTSDKSSSTAYMELSSLTSEDSAVYYCARWGYYGSPLYYFDYWGQGTTLTVSS
VL: QIVLSQSPTILSASPGEKVTMTCRASSRLIYMHWYQQKPGSSPKPWIYATSNLASGVPARFSGSGSGTSYSLTISRVEAEDAATYYCQQWNSNPPTFGTGTKLELKR
notes: Mouse monoclonal antibody produced by the B7-H3 hybridoma M30
binding result (human B7-H3 variant 1): binds

B2: Antibody-drug conjugate (9) (antibody, V domains shown)
VH: EVQLVQSGAEVKKPGSSVKVSCKASGYTITDSNIHWVRQAPGQSLEWIGYIYPYNGGTDYNQKFKNRATLTVDNPTNTAYMELSSLRSEDTAFYYCVNGNPWLAYWGQGTLVTVSS
VL: DIQLTQSPSTLSASVGDRVTITCRASQSLDNYGIRFLTWFQQKPGKAPKLLMYAASNQGSGVPSRFSGSGSGTEFTLTISSLQPDDFATYYCQQTKEVPWSFGQGTKVEVKR
modifications: drug-linker 6-maleimidohexanoyl-GGFG-NH-(CH2)3-C(=O)-exatecan (compound of Process 3 of Example 2) on cysteines of the reduced hinge disulfide bonds; average 3.7 per antibody molecule; positions not given
IC50, cytotoxic activity against the HL-60 cells (CD33): < 100 pM

B3: Antibody-drug conjugate (25) (antibody, V domains shown)
VH: B2 VH
VL: B2 VL
modifications: drug-linker 3-maleimidopropanoyl-NH-(CH2CH2O)2-CH2CH2-C(=O)-GGFG-NH-(CH2)3-C(=O)-exatecan (compound of Process 1 of Example 14) on cysteines of the reduced hinge disulfide bonds; average 7.3 per antibody molecule; positions not given
IC50, cytotoxic activity against the NOMO-1 cells (CD33): < 100 pM

B4: Antibody-drug conjugate (10) (antibody, V domains shown)
VH: QVQLVQSGAEVKKPGASVKVSCKASGYTFTNYGMNWVRQAPGQGLKWMGWINTYTGEPTYADAFKGRVTMTRDTSISTAYMELSRLRSDDTAVYYCARDYGDYGMDYWGQGTTVTVSS
VL: DIVMTQSPDSLAVSLGERATINCRASKSVSTSGYSFMHWYQQKPGQPPKLLIYLASNLESGVPDRFSGSGSGTDFTLTISSLQAEDVAVYYCQHSREVPWTFGQGTKVEIKR
modifications: drug-linker 6-maleimidohexanoyl-GGFG-NH-(CH2)3-C(=O)-exatecan (compound of Process 3 of Example 2) on cysteines of the reduced hinge disulfide bonds; average 3.2 per antibody molecule; positions not given
IC50, cytotoxic activity against the U251 cells (CD70): < 1000 pM

B5: Antibody-drug conjugate (11) (antibody, V domains shown)
VH: B4 VH
VL: B4 VL
modifications: drug-linker 6-maleimidohexanoyl-GGFG-NH-(CH2)3-C(=O)-exatecan (compound of Process 3 of Example 2) on cysteines of the reduced hinge disulfide bonds; average 3.6 per antibody molecule; positions not given
IC50, cytotoxic activity against the U251 cells (CD70): < 1000 pM
